T1: DENV2 NS1 (dengue virus serotype 2 non-structural protein 1), wild type (Dengue virus 2, UniProt P29990 776-1127)
T1 sequence: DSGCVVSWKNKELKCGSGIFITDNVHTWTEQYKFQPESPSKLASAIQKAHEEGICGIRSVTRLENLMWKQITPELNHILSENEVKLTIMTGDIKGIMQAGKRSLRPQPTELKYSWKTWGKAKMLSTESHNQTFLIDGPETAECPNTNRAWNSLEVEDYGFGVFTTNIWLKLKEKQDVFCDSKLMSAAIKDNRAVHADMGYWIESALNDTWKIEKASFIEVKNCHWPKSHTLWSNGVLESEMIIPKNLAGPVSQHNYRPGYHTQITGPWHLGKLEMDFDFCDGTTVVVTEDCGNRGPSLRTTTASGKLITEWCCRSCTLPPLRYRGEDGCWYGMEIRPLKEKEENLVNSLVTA


What was measured:
[1] = target: T1, DENV2 NS1 (dengue virus serotype 2 …); assay: direct ELISA, 2B7 titrated on purified DENV2 NS1, OD450
[2] = target: T1, DENV2 NS1 (dengue virus serotype 2 …); assay: BLI, NS1 on anti-His tips; full-length 2B7, not Fab
[3] = target: T1, DENV2 NS1 (dengue virus serotype 2 …); assay: BLI, NS1 on anti-His tips; Fab, not full-length IgG
[4] = target: T1, DENV2 NS1 (dengue virus serotype 2 …); assay: BLI, NS1 on anti-His tips, n=2 preparations

Row | Binder | EC50 (read off the curve) [1] | Kd [2] | Kd [3] | Kd [4]
1 | anti-DENV NS1 IgG2b mouse monoclonal antibody (mAb) 2B7 (antibody, V domains shown) VH: EVQLQQSGPELVKPGASVKMSCKASGCTLTNCFMHWMKQKPGQDLEWIGYINPYNDMTKYSENFKGKATLTSDKSSSTAFMELSSLTSEDSAVYYCARGYLLRTGCFDYWGQGTTLTVSS VL: NIVLTQSPASLAVSLGQRATISCRASESVDSYGYSFMHWYQQKPGQPPKVLIYLASNLESGVPARFSGSGSRTDFTLTIDPVEADDAATYYCQQNNENPLTFGAGTKLELKR | ~5 ng/mL | 4.8 nM | – | –
2 | 2B7 Fab (Fab, V domains shown) VH: EVQLQQSGPELVKPGASVKMSCKASGCTLTNCFMHWMKQKPGQDLEWIGYINPYNDMTKYSENFKGKATLTSDKSSSTAFMELSSLTSEDSAVYYCARGYLLRTGCFDYWGQGTTLTVSS VL: NIVLTQSPASLAVSLGQRATISCRASESVDSYGYSFMHWYQQKPGQPPKVLIYLASNLESGVPARFSGSGSRTDFTLTIDPVEADDAATYYCQQNNENPLTFGAGTKLELK | – | – | 8.3 nM | 5 to 8 nM
